Experimental data as given in patent publication US20150087812A1 (Janssen / Centocor, published 2015).
Positions count from the first letter of the chain named. Blank lines part the entries; values can stand above or below the binder they belong to.

Tests used:
[1] = molecular target: T1, recombinant human ATX beta isoform with N-terminal purification tag (human, UniProt Q13822 49-863); test: Fab-His ELISA
Procedure: (§1) Fabs were captured on black MaxiSorp plates (Nunc, Cat. No. 437111) coated with 1 μg/ml sheep anti-human Fd (CH1) antibody (The Binding Site, Cat. No. PC075). Plates were washed and biotinylated human ATX was added to the captured Fabs at 5 nM. Incubation was carried out for 1 hour at room temperature with gentle shaking. Plates were washed, SA-HRP (Invitrogen, Cat. No. 43-4323) was added and chemiluminescent detection carried out.
(§2) Clones with binding above background were sequenced and unique clones identified. […] These clones were identified with binding signal to human ATX at least 6-fold above the background. Table 3 lists the identifier for VH and VL (Peptide ID) and the combination of both (Fab ID) sorted by the Fab ELISA binding data.

[2] = molecular target: T1, recombinant human ATX beta isoform with …; test: ELISA, Fab-His captured by anti-Fd, 5 nM biotinylated human ATX beta
Procedure: as §1, §2

B1: Fab F97 (VH H90, VL IFWL124) (Fab, V domains shown)
VH: QVQLVQSGAEVKKPGSSVKVSCKASGGTFSSYAISWVRQAPGQGLEWMGGIIPIFGTANYAQKFQGRVTITADESTSTAYMELSSLRSEDTAVYYCARDASTYGDLDYWGQGTLVTVSS
VL: DIQMTQSPSSLSASVGDRVTITCRASQSIDGWLNWYQQKPGKAPKLLIYAASSLQSGVPSRFSGSGSGTDFTLTISSLQPEDFATYYCQQSYSTPLTFGQGTKVEIK
notes: Soluble Fab-His; converted to mAb B18
- fold above background [1]: ≥ 6 fold
- Fab Binding [2]: 5.8e+06 relative chemiluminescence units

B3: Fab F53 (VH H2, VL L30) (Fab, V domains shown)
VH: B1 VH with A100D, S101L, T102P, Y103L, D105R
VL: EIVLTQSPATLSLSPGERATLSCRASQSVNKHLAWYQQKPGQAPRLLIYKASNRATGIPARFSGSGSGTDFTLTISSLEPEDFAVYYCQQGIRAPYTFGQGTKVEIK
notes: Soluble Fab-His; converted to mAb B4; also called P53
- fold above background [1]: ≥ 6 fold
- Fab Binding [2]: 2.4e+06 relative chemiluminescence units

B4: Fab F11 (VH H2, VL L9) (Fab, V domains shown)
VH: B1 VH with A100D, S101L, T102P, Y103L, D105R
VL: B3 VL with N30A, K31D, H32F, K50T, I92S, R93T
notes: Soluble Fab-His
- fold above background [1]: ≥ 6 fold
- Fab Binding [2]: 1.8e+06 relative chemiluminescence units

B7: Fab F8 (VH H2, VL L7) (Fab, V domains shown)
VH: B1 VH with A100D, S101L, T102P, Y103L, D105R
VL: B3 VL with N30R, K31D, H32W, K50G, I92D, R93G, A94W, Y96W
notes: Soluble Fab-His
- fold above background [1]: ≥ 6 fold
- Fab Binding [2]: 1.6e+06 relative chemiluminescence units

B9: Fab F7 (VH H2, VL L6) (Fab, V domains shown)
VH: B1 VH with A100D, S101L, T102P, Y103L, D105R
VL: B3 VL with K31S, H32W, K50Y, I92H, A94W, Y96F
notes: Soluble Fab-His
- fold above background [1]: ≥ 6 fold
- Fab Binding [2]: 1.8e+06 relative chemiluminescence units

B12: Fab F32 (VH H7, VL PH9L4) (Fab, V domains shown)
VH: B1 VH with A100D, S101V, T102A, Y103L, D105R
VL: not shown
notes: Soluble Fab-His
- fold above background [1]: ≥ 6 fold
- Fab Binding [2]: 2e+06 relative chemiluminescence units

B16: Fab F3 (VH H2, VL L2) (Fab, V domains shown)
VH: B1 VH with A100D, S101L, T102P, Y103L, D105R
VL: B3 VL with K31N, H32F, K50G, G91F, I92K, R93G, Y96L
notes: Soluble Fab-His
- fold above background [1]: ≥ 6 fold
- Fab Binding [2]: 1.4e+06 relative chemiluminescence units

B18: Fab F13 (VH H2, VL L11) (Fab, V domains shown)
VH: B1 VH with A100D, S101L, T102P, Y103L, D105R
VL: B3 VL with N30A, K31D, H32W, K50N, G91Y, A94W, Y96I
notes: Soluble Fab-His
- fold above background [1]: ≥ 6 fold
- Fab Binding [2]: 1.1e+06 relative chemiluminescence units

B22: Fab F9 (VH H2, VL L8) (Fab, V domains shown)
VH: B1 VH with A100D, S101L, T102P, Y103L, D105R
VL: B3 VL with N30A, H32D, K50T, R93N, A94W, Y96F
notes: Soluble Fab-His
- fold above background [1]: ≥ 6 fold
- Fab Binding [2]: 1e+06 relative chemiluminescence units

B23: Fab F2 (VH H2, VL L1) (Fab, V domains shown)
VH: B1 VH with A100D, S101L, T102P, Y103L, D105R
VL: B3 VL with N30R, K31N, H32F, K50D, I92Y, Y96I
notes: Soluble Fab-His
- fold above background [1]: ≥ 6 fold
- Fab Binding [2]: 1.5e+06 relative chemiluminescence units

B26: Fab F17 (VH H11, VL L14) (Fab, V domains shown)
VH: EVQLVQSGAEVKKPGESLKISCKGSGYSFTSYWIGWVRQMPGKGLEWMGIIYPGDSDTRYSPSFQGQVTISADKSISTAYLQWSSLKASDTAMYYCARPYGTFDYWGQGTLVTVSS
VL: B3 VL with N30A, K31D, H32S, G91S, I92N, R93G, A94W, Y96R
notes: Soluble Fab-His (E. coli supernatant); converted to mAb B3
- fold above background [1]: ≥ 6 fold
- Fab Binding [2]: 2.4e+07 relative chemiluminescence units

B28: Fab F123 (VH H120, VL PH9L4) (Fab, V domains shown)
VH: QVQLVQSGAEVKKPGSSVKVSCKASGGTFSSYAISWVRQAPGQGLEWMGGIIPIFGTANYAQKFQGRVTITADESTSTAYMELSSLRSEDTAVYYCARHDVNSLWAYFDYWGQGTLVTVSS
VL: not shown
notes: Soluble Fab-His
- fold above background [1]: ≥ 6 fold
- Fab Binding [2]: 1.4e+06 relative chemiluminescence units

Continued, values first:

- fold above background [1]: ≥ 6 fold
- Fab Binding [2]: 4.2e+06 relative chemiluminescence units
B2: Fab F86 (VH H80, VL L80) (Fab, V domains shown)
VH: B28 VH with H99P, D100I, V101G, N102T, S103G, L104Y, W105Y, A106G, Y107F
VL: B1 VL with D30A, G31K, A50F
notes: Soluble Fab-His; converted to mAb B7

- fold above background [1]: ≥ 6 fold
- Fab Binding [2]: 1.9e+06 relative chemiluminescence units
B5: Fab F50 (VH H25, VL L46) (Fab, V domains shown)
VH: B1 VH with A100D, S101L, T102A, Y103L, D105R
VL: B3 VL with N30S, K31S, H32F, K50T, G91S, I92H, Y96W
notes: Soluble Fab-His

- fold above background [1]: ≥ 6 fold
- Fab Binding [2]: 4.9e+06 relative chemiluminescence units
B6: Fab F143 (VH H148, VL H2RL12) (Fab, V domains shown)
VH: B1 VH with A100F, T102V, L106F
VL: B1 VL with D30A, G31K
notes: Soluble Fab-His; converted to mAb B13

- fold above background [1]: ≥ 6 fold
- Fab Binding [2]: 5.9e+06 relative chemiluminescence units
B8: Fab F96 (VH H89, VL IFWL124) (Fab, V domains shown)
VH: B1 VH with A100S, T102A, L106F
VL: B1 VL
notes: Soluble Fab-His; converted to mAb B8

- fold above background [1]: ≥ 6 fold
- Fab Binding [2]: 1.7e+06 relative chemiluminescence units
B10: Fab F71 (VH H2, VL L65) (Fab, V domains shown)
VH: B1 VH with A100D, S101L, T102P, Y103L, D105R
VL: B3 VL with N30S, K31D, H32Y, K50D, I92S, R93D, Y96L
notes: Soluble Fab-His

- fold above background [1]: ≥ 6 fold
- Fab Binding [2]: 2.3e+06 relative chemiluminescence units
B11: Fab F34 (VH H2, VL L28) (Fab, V domains shown)
VH: B1 VH with A100D, S101L, T102P, Y103L, D105R
VL: B3 VL with N30A, H32F, G91F, I92N, R93S, Y96I
notes: Soluble Fab-His; converted to mAb B5

- fold above background [1]: ≥ 6 fold
- Fab Binding [2]: 1.3e+06 relative chemiluminescence units
B13: Fab F102 (VH H2, VL L91) (Fab, V domains shown)
VH: B1 VH with A100D, S101L, T102P, Y103L, D105R
VL: B3 VL with N30A, K31D, H32W, G91S, I92F, A94W, Y96L
notes: Soluble Fab-His

- fold above background [1]: ≥ 6 fold
- Fab Binding [2]: 1.2e+06 relative chemiluminescence units
B14: Fab F45 (VH H2, VL L34) (Fab, V domains shown)
VH: B1 VH with A100D, S101L, T102P, Y103L, D105R
VL: B3 VL with N30S, K31S, H32W, K50Y, G91F, I92K, R93G, A94W, Y96F
notes: Soluble Fab-His

- fold above background [1]: ≥ 6 fold
- Fab Binding [2]: 1.7e+07 relative chemiluminescence units
B15: Fab F73 (VH H66, VL L67) (Fab, V domains shown)
VH: B1 VH with A100L, S101Y, T102I
VL: B1 VL with D30G, A50T, S93T, T94Y, L96I
notes: Soluble Fab-His; converted to mAb B6

- fold above background [1]: ≥ 6 fold
- Fab Binding [2]: 5.1e+06 relative chemiluminescence units
B17: Fab F104 (VH H96, VL IFWL124) (Fab, V domains shown)
VH: B1 VH with T57N, A58T, A100I, T102G
VL: B1 VL
notes: Soluble Fab-His; converted to mAb B14

- fold above background [1]: ≥ 6 fold
- Fab Binding [2]: 980000 relative chemiluminescence units
B19: Fab F43 (VH H2, VL L44) (Fab, V domains shown)
VH: B1 VH with A100D, S101L, T102P, Y103L, D105R
VL: B3 VL with N30A, H32F, G91Y, I92S, R93T, A94W, Y96F
notes: Soluble Fab-His

- fold above background [1]: ≥ 6 fold
- Fab Binding [2]: 2.1e+06 relative chemiluminescence units
B20: Fab F35 (VH H25, VL L29) (Fab, V domains shown)
VH: B1 VH with A100D, S101L, T102A, Y103L, D105R
VL: B3 VL with N30A, H32F, I92H, R93G, A94W, Y96R
notes: Soluble Fab-His

- fold above background [1]: ≥ 6 fold
- Fab Binding [2]: 1.6e+06 relative chemiluminescence units
B21: Fab F62 (VH H54, VL GCGL18) (Fab, V domains shown)
VH: B1 VH with D99E, A100D, S101V, T102A, Y103L, D105R
VL: not shown
notes: Soluble Fab-His

- fold above background [1]: ≥ 6 fold
- Fab Binding [2]: 1.2e+06 relative chemiluminescence units
B24: Fab F133 (VH H134, VL L117) (Fab, V domains shown)
VH: QVQLVQSGAEVKKPGSSVKVSCKASGGTFSSYAISWVRQAPGQGLEWMGGIIPIFGTANYAQKFQGRVTITADESTSTAYMELSSLRSEDTAVYYCARGADSNAVRLVGFDYWGQGTLVTVSS
VL: EIVLTQSPGTLSLSPGERATLSCRASQSVAYSSLAWYQQKPGQAPRLLIYAASSRATGIPDRFSGSGSGTDFTLTISRLEPEDFAVYYCQQSNTPPLTFGQGTKVEIK
notes: Soluble Fab-His

- fold above background [1]: ≥ 6 fold
- Fab Binding [2]: 1.2e+06 relative chemiluminescence units
B25: Fab F144 (VH H149, VL L122) (Fab, V domains shown)
VH: QVQLVQSGAEVKKPGSSVKVSCKASGGTFSSYGISWVRQAPGQGLEWMGGIIPIFGTANYAQKFQGRVTITADESTSTAYMELSSLRSEDTAVYYCAREDVNYISTYSEFDYWGQGTLVTVSS
VL: B24 VL with A30R, Y31K, S33G, A51N, S92A, N93T, T94K
notes: Soluble Fab-His

- fold above background [1]: ≥ 6 fold
- Fab Binding [2]: 1.4e+06 relative chemiluminescence units
B27: Fab F121 (VH H115, VL L106) (Fab, V domains shown)
VH: B28 VH with H99G, V101A, S103A, W105Y, A106D
VL: B3 VL with N30S, K31N, H32W, K50T, G91R, I92Y, R93T, Y96W
notes: Soluble Fab-His

- fold above background [1]: ≥ 6 fold
- Fab Binding [2]: 1.3e+06 relative chemiluminescence units
B29: Fab F142 (VH H146, VL L121) (Fab, V domains shown)
VH: B28 VH with H99G, V101Y, S103A, L104I, W105Y, A106Y, Y107A, F108L
VL: B1 VL with D30S, G31S, W32Y, S91P, Y92I, T94F, L96Y
notes: Soluble Fab-His
